Results taken from article PMC3070753, “Biochemical and Structural Properties of Cyanases from Arabidopsis thaliana and Oryza sativa” (PLoS ONE, 2011).

What was measured:
[1] = target: the molecule itself; assay: SEC; His-tagged proteins after Ni2+ affinity chromatography on a Superdex 200 10/300 GL column; molecular weight calculated against high molecular weight standards
[2] = substrate: O=C(O)O; assay: purified protein; settings: 5 mM KCNO, pH 7.7, 27°C
[3] = substrate: N#CO; assay: purified protein; type: biochemical, Arabidopsis thaliana; settings: 5 mM NaHCO3, pH 7.7, 27°C
[4] = substrate: N#CO; assay: purified protein; type: biochemical, Oryza sativa; settings: 5 mM NaHCO3, pH 7.7, 27°C

B1: His-tagged recombinant AtCYN (enzyme, Arabidopsis thaliana, UniProt O22683 1-168, looked up)
chain: MEAAKKQSVTNQLLAVKSASGKTFSQLAAETGLTNVYVAQLLRRQAQLKPDTVPKLKEALPALTDELIGDMMSPPWRSYDPNLIQEPTIYRLNEAVMHFGESIKEIINEDFGDGIMSAIDFYCSVDKIKGVDGNNRVVVTLDGKYLSHSEQRTENMVSRLNLKGGTSE
notes: cyanase (AtCYN) of Arabidopsis thaliana, 168 aa, NP_188991; cDNA amplified with primers from the start codon to the stop codon, cloned into pET15b; pET15b construct (BamH I and Xho I sites); calculated monomer with tag 21.9 kDa; also called His:AtCYN; source: E. coli BL21 (DE3), purified (Ni2+ chelating column, Superdex 200); copies: 10
stoichiometry N [1]: 10
Km [2]: 790 µM
Km [3]: 940 µM

B2: His-tagged recombinant OsCYN (enzyme, Oryza sativa, UniProt Q9FWK4 1-168, looked up)
chain: MEGGGGERAAGVVRRLMAAKAESRKSFSEIGEEAGLTNVYVAQLLRRQAQLKPETAPALRAAVPGLTDDLVALMMEPPFRSYHPDIVHEPAIYRLNEAVMHFGESIKEIINEEFGDGIMSAIDFYCSVDKVQGADGKDRVVVTFDGKYLPYSEQRSDHMMSRLTRKTS
notes: cyanase (OsCYN) of Oryza sativa (cv. Zhonghua 11), 168 aa, NP_001064827; cDNA amplified with primers from the start codon to the stop codon, cloned into pET15b; pET15b construct (BamH I and Xho I sites); calculated monomer with tag 22.0 kDa; also called His:OsCYN; source: E. coli BL21 (DE3), purified (Ni2+ chelating column, Superdex 200); copies: 10
stoichiometry N [1]: 10
Km [4]: 7380 µM
Km [2]: 630 µM
